Data on 7 molecules can be found in article PMC4383501, “Computational Selection of RNA Aptamer against Angiopoietin-2 and Experimental Evaluation”.

For orientation: Kd means the equilibrium constant for the complex coming apart. Read a high Kd as lower affinity.

Data set [1] concerns the target T1, Angiopoietin-2 (Ang2), active human (human, UniProt O15123 19-496). As to the kind of experiment: SPR; kon 1.66e3 M-1s-1; koff 4.99e-3 s-1; described as very weak, partly nonspecific adsorption; SPR imaging, biotinylated RNA on streptavidin/BAT-PEG chip, 0.5 uM Ang2 in TBS pH 7.4, 9 min association, 6 min TBS rinse; temperature not stated. To be noted: protein: commercial; label: 5' biotin; single strand. (In general: In SPR one partner is held on a chip, and binding of the other changes the refractive index at the surface.)

The target of data set [2] is Angiopoietin-2 (human) (Homo sapiens (Human), UniProt O15123 19-496). As to the kind of experiment: SPR; TBS pH 7.4, 25 C. To be noted: label: 5'-biotin (5'-A5 is a spacer).
Angiopoietin-2 (human), sequence (O15123 19-496): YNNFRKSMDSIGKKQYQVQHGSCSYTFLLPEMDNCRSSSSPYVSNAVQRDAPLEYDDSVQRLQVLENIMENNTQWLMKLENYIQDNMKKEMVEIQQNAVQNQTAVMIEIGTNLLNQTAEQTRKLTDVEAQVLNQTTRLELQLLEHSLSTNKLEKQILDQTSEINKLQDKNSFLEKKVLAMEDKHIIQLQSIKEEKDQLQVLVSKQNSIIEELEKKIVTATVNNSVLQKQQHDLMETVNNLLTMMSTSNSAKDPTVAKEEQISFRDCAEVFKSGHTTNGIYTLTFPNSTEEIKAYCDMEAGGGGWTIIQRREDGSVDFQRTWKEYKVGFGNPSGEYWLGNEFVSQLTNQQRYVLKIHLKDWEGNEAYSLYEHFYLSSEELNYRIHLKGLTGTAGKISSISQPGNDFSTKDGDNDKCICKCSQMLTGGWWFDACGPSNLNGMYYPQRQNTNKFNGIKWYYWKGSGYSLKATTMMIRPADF
In data set [3] the target is T1, Angiopoietin-2 (Ang2), active human. The experiment in a line: SPR; kon 6.03e3 M-1s-1; koff 0.61e-3 s-1; SPR imaging, biotinylated RNA on streptavidin/BAT-PEG chip, 0.5 uM Ang2 in TBS pH 7.4, 9 min association, 6 min TBS rinse; temperature not stated. To be noted: protein: commercial; label: 5' biotin; single strand.
Data set [4] shares this target. The experiment in a line: SPR; kon 8.22e3 M-1s-1; koff 0.97e-3 s-1; SPR imaging, biotinylated RNA on streptavidin/BAT-PEG chip, 0.5 uM Ang2 in TBS pH 7.4, 9 min association, 6 min TBS rinse; temperature not stated. To be noted: protein: commercial; label: 5' biotin; single strand.
For data set [5] the target is unchanged. As to the kind of experiment: SPR; kon 4.07e3 M-1s-1; koff 0.79e-3 s-1; SPR imaging, biotinylated RNA on streptavidin/BAT-PEG chip, 0.5 uM Ang2 in TBS pH 7.4, 9 min association, 6 min TBS rinse; temperature not stated. To be noted: protein: commercial; label: 5' biotin; single strand.
The target is the same in data set [6]. The experiment in a line: SPR; kon 10.02e3 M-1s-1; koff 1.39e-3 s-1; SPR imaging, biotinylated RNA on streptavidin/BAT-PEG chip, 0.5 uM Ang2 in TBS pH 7.4, 9 min association, 6 min TBS rinse; temperature not stated. To be noted: protein: commercial; label: 5' biotin; single strand.

T1 sequence (O15123 19-496): as above

For AAAAAACUCGAACAUUUCCACUAACCAACCAUACUAAAGCACCGC (ssRNA) [Seq16 (biotin-A5), Ang1-specific aptamer], the Ka in data set [1] was 0.33 10^6 M^-1.
Take AAAAAACUCGAACAUUUCCACUAACCAACCAUACUAAAGCACCGC (ssRNA) [Seq16 (Ang1 aptamer / negative control)]: the Kd in data set [2] was 3.03 µM.
AAAAAGAGGACGAUGCCGACUAGCCUCAUCAGCUCAUGUCCCCCUC (ssRNA) [Seq15_12_35 (biotin-A5)]: the Ka in data set [3] is 9.89 10^6 M^-1.
Take AAAAAGAGGACGAUGCGGAUUAGCCUCAUCAGCUCAUGUGCCGCUC (ssRNA) [Seq15_15_38 (biotin-A5)]: the Ka in data set [4] was 8.47 10^6 M^-1.
Regarding AAAAAUUAACCAUCAGAUCAUGGCCCCUGCCCUCUCAAGCACCAC (ssRNA) [Seq2_12_35 (biotin-A5)], in data set [5], the Ka was 5.15 10^6 M^-1.
On to AAAAAACUAGCCUCAUCAGCUCAUGUGCCCCUCCGCCUGGAUCAC (ssRNA) [Seq1 (biotin-A5)], for which the Ka in data set [6] was 7.23 10^6 M^-1.
AAAAAACUAGCCUCAUCAGCUCAUGUGCCCCUCCGCCUGGAUCAC (ssRNA) [Seq1] displayed a Kd in data set [2] of 0.138 µM.
